From PMC9978855 (Acta Pharmaceutica Sinica. B, 2022) come the findings set out here.

In this test the target is NLRP3 protein, purchased recombinant (UniProt Q96P20 1-1036). In words: SPR. (In general: Surface plasmon resonance follows binding to a sensor surface in real time, without labels.)
NLRP3 protein, purchased recombinant, sequence (Q96P20 whole entry): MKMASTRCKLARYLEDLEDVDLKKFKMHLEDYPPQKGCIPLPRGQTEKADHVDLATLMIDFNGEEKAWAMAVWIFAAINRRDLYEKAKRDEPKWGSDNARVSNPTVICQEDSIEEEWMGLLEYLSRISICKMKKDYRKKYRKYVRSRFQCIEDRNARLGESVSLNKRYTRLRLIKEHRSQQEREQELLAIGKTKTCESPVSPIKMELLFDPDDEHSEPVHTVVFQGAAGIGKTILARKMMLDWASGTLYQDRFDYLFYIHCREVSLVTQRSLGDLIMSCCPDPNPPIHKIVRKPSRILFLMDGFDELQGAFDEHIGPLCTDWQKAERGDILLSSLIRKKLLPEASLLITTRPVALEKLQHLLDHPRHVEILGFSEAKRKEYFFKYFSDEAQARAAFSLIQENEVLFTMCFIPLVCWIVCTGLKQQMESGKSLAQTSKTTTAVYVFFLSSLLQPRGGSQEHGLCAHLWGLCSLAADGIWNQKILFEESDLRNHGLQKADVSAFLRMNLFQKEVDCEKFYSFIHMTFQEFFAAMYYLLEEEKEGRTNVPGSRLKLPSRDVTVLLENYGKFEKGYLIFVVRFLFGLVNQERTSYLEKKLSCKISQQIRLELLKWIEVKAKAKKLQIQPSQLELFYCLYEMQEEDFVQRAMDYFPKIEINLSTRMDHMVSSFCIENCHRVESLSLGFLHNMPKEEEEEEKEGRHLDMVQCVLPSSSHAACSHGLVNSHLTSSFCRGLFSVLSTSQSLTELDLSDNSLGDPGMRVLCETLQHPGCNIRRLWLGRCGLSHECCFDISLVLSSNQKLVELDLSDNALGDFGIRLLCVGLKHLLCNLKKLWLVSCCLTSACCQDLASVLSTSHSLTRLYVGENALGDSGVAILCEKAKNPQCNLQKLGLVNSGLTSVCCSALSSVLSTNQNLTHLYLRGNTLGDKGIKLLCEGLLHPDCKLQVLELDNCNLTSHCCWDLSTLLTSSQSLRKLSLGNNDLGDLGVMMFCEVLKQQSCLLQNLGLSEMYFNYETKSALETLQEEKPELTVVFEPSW

B1: ASCT2 protein (alanine-serine-cysteine transporter 2), purchased recombinant (natural protein, UniProt Q15758 1-541, looked up)
chain: MVADPPRDSKGLAAAEPTANGGLALASIEDQGAAAGGYCGSRDQVRRCLRANLLVLLTVVAVVAGVALGLGVSGAGGALALGPERLSAFVFPGELLLRLLRMIILPLVVCSLIGGAASLDPGALGRLGAWALLFFLVTTLLASALGVGLALALQPGAASAAINASVGAAGSAENAPSKEVLDSFLDLARNIFPSNLVSAAFRSYSTTYEERNITGTRVKVPVGQEVEGMNILGLVVFAIVFGVALRKLGPEGELLIRFFNSFNEATMVLVSWIMWYAPVGIMFLVAGKIVEMEDVGLLFARLGKYILCCLLGHAIHGLLVLPLIYFLFTRKNPYRFLWGIVTPLATAFGTSSSSATLPLMMKCVEENNGVAKHISRFILPIGATVNMDGAALFQCVAAVFIAQLSQQSLDFVKIITILVTATASSVGAAGIPAGGVLTLAIILEAVNLPVDHISLILAVDWLVDRSCTVLNVEGDALGAGLLQNYVDRTESRSTEPELIQVKSELPLDPLPVPTEEGNPLLKHYRGPAGDATVASEKESVM
B1: the Kd (commonly a measure of binding affinity in units of concentration) was roughly 3.45 µM.
